Test results published in patent US20210130436A1 (published 2021).
Changes are numbered by the printed parent chain. In names and notes the source's numbering stands. Blank lines part the entries; values can stand above or below the binder they belong to.

Tests used:
human CD28 [1] = molecular target: T1, human CD28 (human, UniProt P10747 19-220); experiment: flow cytometry on Jurkat cells (CD28)
T1 construct: Endogenous CD28 on Jurkat/IL2 reporter cells

human PD-L1 [2] = molecular target: T2, human PD-L1 (human, UniProt Q9NZQ7 19-290); experiment: flow cytometry on CHO cells stably expressing PD-L1
T2 construct: also called huPD-L1; CD274
T2 sequence (Q9NZQ7 19-290): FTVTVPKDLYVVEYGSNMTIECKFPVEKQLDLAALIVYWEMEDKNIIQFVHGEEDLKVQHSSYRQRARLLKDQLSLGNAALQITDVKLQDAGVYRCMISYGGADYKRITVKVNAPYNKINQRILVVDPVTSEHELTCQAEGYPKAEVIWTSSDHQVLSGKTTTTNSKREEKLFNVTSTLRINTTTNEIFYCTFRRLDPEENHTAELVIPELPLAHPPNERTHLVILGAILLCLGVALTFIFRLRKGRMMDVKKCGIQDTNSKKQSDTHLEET

CD226 = molecular target: T3, CD226 (UniProt Q15762 19-336); experiment: flow cytometry on cells expressing CD226, Fc fusion at 100 nM
T3 construct: whole, on cells
T3 sequence (looked up): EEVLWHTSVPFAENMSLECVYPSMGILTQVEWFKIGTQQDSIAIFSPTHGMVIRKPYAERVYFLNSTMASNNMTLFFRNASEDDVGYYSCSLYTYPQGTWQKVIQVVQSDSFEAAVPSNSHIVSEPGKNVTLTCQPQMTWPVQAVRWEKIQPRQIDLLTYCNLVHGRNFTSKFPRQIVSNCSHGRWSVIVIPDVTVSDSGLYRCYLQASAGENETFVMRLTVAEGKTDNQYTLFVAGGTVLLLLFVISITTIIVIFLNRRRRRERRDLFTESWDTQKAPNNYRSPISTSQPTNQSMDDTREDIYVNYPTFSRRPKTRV

CD96 = molecular target: T4, CD96 (UniProt P40200 22-585, limits assumed); experiment: flow cytometry on cells expressing CD96, Fc fusion at 100 nM
T4 construct: whole, on cells
T4 sequence (looked up): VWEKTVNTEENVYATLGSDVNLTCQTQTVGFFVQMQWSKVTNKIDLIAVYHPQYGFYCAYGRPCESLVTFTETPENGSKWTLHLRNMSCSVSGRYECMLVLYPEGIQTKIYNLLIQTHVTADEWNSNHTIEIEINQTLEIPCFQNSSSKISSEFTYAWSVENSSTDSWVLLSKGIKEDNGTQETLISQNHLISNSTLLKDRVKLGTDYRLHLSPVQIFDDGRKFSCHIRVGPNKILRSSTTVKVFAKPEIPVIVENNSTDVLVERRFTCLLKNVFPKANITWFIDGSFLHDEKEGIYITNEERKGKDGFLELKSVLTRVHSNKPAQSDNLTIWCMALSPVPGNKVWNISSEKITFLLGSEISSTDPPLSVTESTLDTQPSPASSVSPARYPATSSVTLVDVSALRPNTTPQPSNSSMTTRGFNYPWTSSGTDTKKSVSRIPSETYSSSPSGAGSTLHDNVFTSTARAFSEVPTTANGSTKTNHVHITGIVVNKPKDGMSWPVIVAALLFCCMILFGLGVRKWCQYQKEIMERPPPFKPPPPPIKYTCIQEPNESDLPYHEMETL

human PD-L1 [3] = molecular target: T5, human PD-L1 (human, UniProt Q9NZQ7 19-290); experiment: flow cytometry, CHO cells stably expressing PD-L1
T5 construct: also called huPD-L1; CD274
T5 sequence (Q9NZQ7 19-290): as the sequence (Q9NZQ7 19-290) above

human CD28 [4] = molecular target: human CD28 (human, UniProt P10747 19-220); experiment: flow cytometry, Jurkat cells (CD28)
human PD-L1 [5] = molecular target: T5, human PD-L1; experiment: flow cytometry; PD-L1 MFI over CD28 MFI
[6] = molecular target: T6, human CTLA4 (huCTLA4), full-length, stably expressed on CHO cells (human, UniProt P16410 36-223); experiment: flow cytometry, CHO cells expressing huCTLA4
T6 construct: whole, on cells
T6 sequence (P16410 36-223): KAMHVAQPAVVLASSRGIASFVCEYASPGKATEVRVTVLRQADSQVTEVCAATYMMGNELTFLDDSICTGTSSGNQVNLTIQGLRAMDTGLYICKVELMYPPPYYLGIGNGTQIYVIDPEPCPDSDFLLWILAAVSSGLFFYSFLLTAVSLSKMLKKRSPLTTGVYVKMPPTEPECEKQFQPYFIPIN

[7] = molecular target: T7, CD28, endogenously expressed on Jurkat/IL2 reporter cells (human, UniProt P10747 19-220); experiment: flow cytometry, Jurkat/IL2 reporter cells (endogenous CD28)
T7 construct: whole, on cells

[8] = molecular target: T8, human PD-L1 (huPD-L1), full-length, stably expressed on CHO cells (human, UniProt Q9NZQ7 19-290); experiment: flow cytometry, CHO cells expressing huPD-L1
T8 construct: whole, on cells
T8 sequence (Q9NZQ7 19-290): as the sequence (Q9NZQ7 19-290) above

[9] = molecular target: T9, human PD-L1 (CD274), full-length, expressed on the surface of CHO cells (human, UniProt Q9NZQ7 19-290); experiment: flow cytometry, CHO cells stably expressing human PD-L1, 33.3 nM Fc fusion, PE anti-human Fc
T9 construct: also called huPD-L1; B7-H1
T9 sequence (Q9NZQ7 19-290): as above

[10] = molecular target: T9, human PD-L1 (CD274), full-length, …; experiment: flow cytometry; MFI on PD-L1 CHO cells over MFI on Jurkat cells (CD28)
[11] = molecular target: T10, human CTLA-4 (CTLA4), full-length, expressed on the surface of CHO cells (human, UniProt P16410 36-223); experiment: flow cytometry on CTLA-4 CHO cells; MFI against WT CD80 ECD-Fc (R&D)
T10 construct: also called huCTLA4
T10 sequence (P16410 36-223): as the sequence (P16410 36-223) above

[12] = molecular target: T11, human CD28, endogenously expressed on Jurkat/IL2 reporter cells (human, UniProt P10747 19-220); experiment: flow cytometry on Jurkat cells (CD28); MFI against WT CD80 ECD-Fc (R&D)
T11 construct: This is the endogenous CD28 of Jurkat cells

[13] = molecular target: T10, human CTLA-4 (CTLA4), full-length, …; experiment: flow cytometry, CHO cells stably expressing human CTLA-4, 33.3 nM Fc fusion, PE anti-human Fc
[14] = molecular target: T11, human CD28, endogenously expressed on …; experiment: flow cytometry, Jurkat/IL2 reporter cells (endogenous CD28), 33.3 nM Fc fusion, PE anti-human Fc
[15] = molecular target: T9, human PD-L1 (CD274), full-length, …; experiment: flow cytometry on PD-L1 CHO cells; MFI against WT CD80 ECD-Fc (R&D)

B1: CD80 E35D/M47V/N48K/V68M/K89N IgV-Fc, GS(G4S)3 linker (Fc fusion, not shown: a dimerising Fc or GST)
chain: VIHVTKEVKEVATLSCGHNVSVEELAQTRIYWQKDKKMVLTMMSGDVKIWPEYKNRTIFDITNNLSIMILALRPSDEGTYECVVLKYENDAFKREHLAEVTLSVKADGSGGGGSGGGGSGGGGS
MFI at 33.3 nM (human CD28 [1]): 2110 MFI
MFI at 33.3 nM (human PD-L1 [2]): 24200 MFI

B3: CD155 S52L/L104E variant IgV-Fc fusion (Fc fusion, not shown: a dimerising Fc or GST)
chain: WPPPGTGDVVVQAPTQVPGFLGDSVTLPCYLQVPNMEVTHVSQLTWARHGELGSMAVFHQTQGPSYSESKRLEFVAARLGAELRNASLRMFGLRVEDEGNYTCEFVTFPQGSRSVDIWLRVL
MFI at 100 nM (CD226): 2210 MFI
MFI at 100 nM (CD96): 1830 MFI

B8: variant CD80 IgV-Fc E35D/M47V/V68M/L85M (Fc fusion, not shown: small tags and cut ends; a dimerising Fc or GST)
chain: VIHVTKEVKEVATLSCGHNVSVEELAQTRIYWQKDKKMVLTMMSGDVNIWPEYKNRTIFDITNNLSIMILALRPSDEGTYECVVMKYEKDAFKREHLAEVTLSVKAD
MFI at 33.3 nM [6]: 16000 MFI
MFI at 33.3 nM [7]: 201 MFI
MFI at 33.3 nM [8]: 9180 MFI

B9: variant CD80 IgV-Fc V22A/E35D/V68E/A71D (Fc fusion, not shown: a dimerising Fc or GST)
chain: B8 chain with V22A, V47M, M68E, A71D, M85L
notes: The molecule is an Fc fusion, which the general text describes as a dimer
MFI at 33.3 nM [9]: 1350 MFI
Ratio of PDL1:CD28 [10]: 0 ratio
Fold change to WT CD80 [11]: 2.45 fold
Fold change to WT [12]: 1.83 fold
MFI at 33.3 nM [13]: 437000 MFI
MFI at 33.3 nM [14]: 14000 MFI
Fold change to WT [15]: 0.17 fold

Other lines, results leading:

MFI at 33.3 nM (human CD28 [1]): 267 MFI
MFI at 33.3 nM (human PD-L1 [2]): 22600 MFI
B2: CD80 E35D/D46V/M47L/V68M/L85Q/E88D IgV-Fc, GS(G4S)3 linker (Fc fusion, not shown: a dimerising Fc or GST)
chain: B1 chain with D46V, V47L, K48N, L85Q, E88D, N89K

MFI at 100 nM (CD226): 5790 MFI
MFI at 100 nM (CD96): 2450 MFI
B4: CD155 T45Q/S52Q variant IgV-Fc fusion (Fc fusion, not shown: a dimerising Fc or GST)
chain: B3 chain with T45Q, L52Q, E104L

MFI at 100 nM (CD226): 2080 MFI
MFI at 100 nM (CD96): 2340 MFI
B5: CD155 T45Q/S52R/G111R variant IgV-Fc fusion (Fc fusion, not shown: a dimerising Fc or GST)
chain: B3 chain with T45Q, L52R, E104L, G111R

MFI at 33.3 nM (human CD28 [1]): 37 MFI
MFI at 33.3 nM (human PD-L1 [2]): 35 MFI
B6: CD80 ECD-Fc (inert) with GSG4S linker, Example 16 (Fc fusion)
chain: VIHVTKEVKEVATLSCGHNVSVEELAQTRIYWQKEKKMVLTMMSGDMNIWPEYKNRTIFDITNNLSIVILALRPSDEGTYECVVLKYEKDAFKREHLAEVTLSVKADFPTPSISDFEIPTSNIRRIICSTSGGFPEPHLSWLENGEELNAINTTVSQDPETELYAVSSKLDFNMTTNHSFMCLIKYGHLRVNQTFNWNTTKQEHFPDNGSGGGGSEPKSSDKTHTCPPCPAPEAEGAPSVFLFPPKPKDTLMISRTPEVTCVVVDVSHEDPEVKFNWYVDGVEVHNAKTKPREEQYNSTYRVVSVLTVLHQDWLNGKEYKCKVSNKALPAPIEKTISKAKGQPREPQVYTLPPSREEMTKNQVSLTCLVKGFYPSDIAVEWESNGQPENNYKTTPPVLDSDGSFFLYSKLTVDKSRWQQGNVFSCSVMHEALHNHYTQKSLSLSPG

Fold change to WT CD80 (human PD-L1 [3]): 87 fold
MFI at 33.3 nM (human PD-L1 [3]): 4480 MFI
Fold change to WT CD80 (human CD28 [4]): 0.4 fold
MFI at 33.3 nM (human CD28 [4]): 13.8 MFI
Ratio of PDL1:CD28 (human PD-L1 [5]): 325 ratio
B7: CD80 IgV-Fc T13R/Q33R/E35D/M38I/M47L/V68M (Fc fusion, not shown: a dimerising Fc or GST)
chain: B8 chain with T13R, Q33R, M38I, V47L, M85L
